Assays:
[1] = molecular target: SARS-CoV-2 spike (S) protein (SARS-CoV-2) (UniProt P0DTC2)
[2] = molecular target: SARS-CoV-2 spike (S) protein (SARS-CoV-2) (UniProt P0DTC2); remark: listed apart in the source
[3] = molecular target: SARS-CoV-2 spike (S) protein (SARS-CoV-2) (UniProt P0DTC2); remark: listed apart in the source
[4] = molecular target: SARS-CoV-2 S protein (RBD) (SARS-CoV-2) (UniProt P0DTC2); experiment: ELISA; competitive inhibition ELISA: 1 μg/ml ACE2 coated in 0.01 M Tris pH 8.8; S (RBD) 1 μg/ml pre-incubated with HP-OVA or unmodified OVA at the indicated concentrations was added; antibody detection, absorbance at 450 nm

## 3-hydroxyphthalic anhydride-modified chicken ovalbumin (from UniProt P01012 1-386)
[1]
  IC50 against live SARS-CoV-2 in Vero E6 cells (CPE assay); blocks S with ACE2: 4.78 µM
  IC90 against live SARS-CoV-2 in Vero E6 cells (CPE assay); blocks S with ACE2: 12.2 µM
[2]
  IC50 of inhibition of SARS-CoV-2 S pseudovirus entry into 293T/ACE2 cells (luciferase); blocks S with ACE2: 0.7 µM
  IC50 of inhibition of SARS-CoV-2 S pseudovirus entry into Vero E6 cells (luciferase); blocks S with ACE2: 1.21 µM
[3]
  IC50 of inhibition of S-mediated cell-cell fusion of 293T/SARS-CoV-2/EGFP and Huh 7 cells; blocks S with ACE2: 1.54 µM
  IC50 of inhibition of S-mediated cell-cell fusion of 293T/SARS-CoV-2/EGFP and Vero E6 cells; blocks S with ACE2: 1.74 µM
[4]
  IC50: 17.9 µM
